Reference: patent publication US20110086041A1

Tests used:
[1] = molecular target: 92UG-gp41-inter-Fd (HIV-1 isolate 92UG037.8); experiment: SPR, 92UGgp41-inter-Fd immobilized on CM-5, 4E10 scFv flowing at 50 nM, single concentration
[2] = molecular target: biotinylated 4E10 epitope peptide; experiment: SPR, biotinylated 4E10 epitope peptide on SA chip, 4E10 scFv flowing
[3] = molecular target: HXB2-gp41-interf-GCN4 (HIV-1 isolate HXB2) (UniProt P04578); experiment: SPR, His-4E10 scFv on Ni-NTA chip, HXB2gp41-interf-GCN4 flowing at 50 nM, single concentration
[4] = molecular target: 92UG-gp140-Fd trimer (HIV-1 isolate 92UG037.8); experiment: SPR, 92UGgp140-Fd immobilized, 2G12 Fab flowing, 1:1 Langmuir model
[5] = molecular target: 92UG-gp41-inter-Fd (HIV-1 isolate 92UG037.8); experiment: SPR, 2F5 Fab immobilized, 92UGgp41-inter-Fd flowing; dissociation phase virtually flat, actual off-rate probably slower
T20 peptide = experiment: SPR, 2F5 Fab immobilized, T20 flowing
[6] = molecular target: HXB2-gp41-inter-GCN4 (HIV-1 isolate HXB2) (UniProt P04578); experiment: SPR, 2F5 Fab immobilized, HXB2gp41-inter-GCN4 flowing, 1:1 Langmuir model
[7] = molecular target: 92UG-gp41-post (HIV-1 isolate 92UG037.8); experiment: SPR, 2F5 Fab immobilized, 92UGgp41-post flowing
[8] = molecular target: HXB2-gp41-inter-GCN4 (HIV-1 isolate HXB2) (UniProt P04578); experiment: SPR, 2F5 Fab immobilized, HXB2gp41-inter-GCN4 flowing; dissociation phase virtually flat, actual off-rate probably slower
[9] = molecular target: HXB2-gp41-inter-GCN4 (HIV-1 isolate HXB2) (UniProt P04578); experiment: SPR, told of the gp41-inter proteins as a group
[10] = molecular target: 92UG-gp41-inter-Fd (HIV-1 isolate 92UG037.8); experiment: SPR, told of the gp41-inter proteins as a group
[11] = molecular target: 92UG-gp41-inter-Fd (HIV-1 isolate 92UG037.8); experiment: SPR, 92UGgp41-inter-Fd immobilized, 2F5 Fab flowing
[12] = molecular target: 92UG-gp41-inter-Fd (HIV-1 isolate 92UG037.8); experiment: SPR, told of the gp41-inter proteins as a group; Table 1 ties this value to 92UGgp41-inter-Fd
[13] = molecular target: short 2F5 epitope peptide; experiment: SPR, 2F5 Fab immobilized, 2F5 epitope peptide flowing
[14] = molecular target: 92UG-gp41-inter-Fd (HIV-1 isolate 92UG037.8); experiment: SPR, 2F5 Fab immobilized, 92UGgp41-inter-Fd flowing, 1:1 Langmuir model
[15] = molecular target: short 2F5 epitope peptide; experiment: SPR, 2F5 epitope peptide immobilized, 2F5 Fab flowing
[16] = molecular target: monomeric 92UG-gp120 core protein (HIV-1 isolate 92UG037); experiment: SPR, b6 IgG immobilized, 92UG gp120 flowing, single analyte concentration
[17] = molecular target: monomeric 92UG-gp120 core protein (HIV-1 isolate 92UG037); experiment: SPR; told with a reference to Rits-Volloch et al. 2006 and FIG. 6C
[18] = molecular target: monomeric 92UG-gp120 core protein (HIV-1 isolate 92UG037); experiment: SPR, b12 IgG immobilized, 92UG gp120 flowing, single analyte concentration

Substance: 4E10 single-chain Fv fragment (scFv)
- Kd [1]: 1.07 nM
- koff [1]: 0.000171 s⁻¹
- kon [1]: 160000 M⁻¹ s⁻¹
- Kd [2]: 18.6 nM
- koff [2]: 0.000685 s⁻¹
- kon [2]: 36900 M⁻¹ s⁻¹
- Kd [3]: 2.98 nM
- koff [3]: 0.000443 s⁻¹
- kon [3]: 149000 M⁻¹ s⁻¹

Substance: Fab fragment of broadly neutralizing antibody 2G12
- Kd [4]: 17.9 nM
- koff [4]: 0.000958 s⁻¹
- kon [4]: 53500 M⁻¹ s⁻¹

Substance: Fab fragment of mAb 2F5
- koff [5]: 1.39e-05 s⁻¹
- Kd (T20 peptide): 4.79 nM
- koff (T20 peptide): 0.00217 s⁻¹
- kon (T20 peptide): 454000 M⁻¹ s⁻¹
- Kd [6]: 8.96 nM
- kon [6]: 6820 M⁻¹ s⁻¹
- Kd [7]: 1410 nM
- koff [7]: 0.00243 s⁻¹
- kon [7]: 1660 M⁻¹ s⁻¹
- koff [8]: 6.11e-05 s⁻¹
- Kd [9]: < 10 nM
- Kd [10]: < 10 nM
- Kd [11]: 3.24 nM
- koff [11]: 0.000496 s⁻¹
- kon [11]: 153000 M⁻¹ s⁻¹
- koff [12]: < 1.4e-05 s⁻¹
- Kd [13]: 3.83 nM
- koff [13]: 0.00329 s⁻¹
- kon [13]: 859000 M⁻¹ s⁻¹
- Kd [14]: 1.38 nM
- kon [14]: 10000 M⁻¹ s⁻¹
- Kd [15]: 5.33 nM
- koff [15]: 0.0015 s⁻¹
- kon [15]: 282000 M⁻¹ s⁻¹

Substance: mAb b6 whole IgG (antibody)
- Kd [16]: 2.69 nM
- koff [16]: 0.000151 s⁻¹
- kon [16]: 56200 M⁻¹ s⁻¹

Substance: mAb b12 whole IgG (antibody)
- Kd [17]: 1400 nM
- Kd [18]: 993 nM
- koff [18]: 0.0149 s⁻¹
- kon [18]: 15000 M⁻¹ s⁻¹
